{"source": "patent US20140162285A1", "about": "“Methods of Modulating Vesicular Trafficking” (The General Hospital Corporation, priority 2009, published 2014)", "molecules": {"B1": {"name": "a2N: recombinant N-terminal cytosolic tail, amino acid residues 1-402 of mouse V-ATPase a2-subunit (protein)", "chain": "MGSLFRSESMCLAQLFLQSGTAYECLSALGEKGLVQFRDLNQNVSSFQRKFVGEVKRCEELERILVYLVQEITRADIPLPEGEASPPAPPLKHVLEMQEQLQKLEVELREVTKNKEKLRKNLLELVEYTHMLRVTKTFLKRNVEFEPTYEEFPALENDSLLDYSCMQRLGAKLGFVSGLIQQGRVEAFERMLWRACKGYTIVTYAELDECLEDPETGEVIKWYVFLISFWGEQIGHKVKKICDCYHCHIYPYPNTAEERREIQEGLNTRIQDLYTVLHKTEDYLRQVLCKAAESVCSRVVQVRKMKAIYHMLNMCSFDVTNKCLIAEVWCPEVDLPGLRRALEEGSRESGATIPSFMNTIPTKETPPTLIRTNKFTEGFQNIVDAYGVGSYREVNPALFTII", "modifications": "left off: small tags and cut ends", "notes": "recombinant N-terminal cytosolic tail, amino acid residues 1-402 of mouse V-ATPase a2-subunit"}}, "target": "T1, ARNO(wt) (Homo sapiens, UniProt Q99418)", "T1 construct": "i) 1-400aa, full length ARNO(wt); GST (N); made in house; host or cells: E. coli BL21(DE3)", "T1 sequence (Q99418 1-400)": "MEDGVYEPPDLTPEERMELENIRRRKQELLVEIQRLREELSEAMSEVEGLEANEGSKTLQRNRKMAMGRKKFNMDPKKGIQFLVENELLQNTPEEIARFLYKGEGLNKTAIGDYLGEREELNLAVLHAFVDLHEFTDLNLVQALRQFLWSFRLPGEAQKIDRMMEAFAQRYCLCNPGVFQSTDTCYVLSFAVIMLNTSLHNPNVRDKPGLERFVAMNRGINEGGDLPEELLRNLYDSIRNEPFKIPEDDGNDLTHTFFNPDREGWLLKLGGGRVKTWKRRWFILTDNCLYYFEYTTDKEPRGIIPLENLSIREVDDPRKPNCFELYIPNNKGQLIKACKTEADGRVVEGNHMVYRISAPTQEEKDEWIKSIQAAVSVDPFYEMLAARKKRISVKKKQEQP", "test": "surface plasmon resonance (BIAcore T100) kinetic analysis a2N(wt)/ARNO(wt)", "assay_type": "binding", "text": "6A, Kinetic analysis and estimation of a dissociation constant (KD) for interaction between full-length a2N(wt) and ARNO(wt) proteins. Sensorgrams for the binding of recombinant a2N-6His immobilized as ligand on the sensor chip, with various concentrations of 6His-ARNO as analyte are shown as follows. The responses on the sensorgram are designated in resonance units (RU). […] 6B, Kinetic analysis and estimation of KD for interaction between a2N-01 peptide and Sec7-domain of ARNO. Sensorgrams for the binding of a2N-01 peptide immobilized as ligand on the sensor chip, with various concentrations of Sec7-domain as analyte are shown as follows. The responses on the sensorgram are designated in resonance units (RU).\nAll reagents, including buffers, sensor chips and the amine coupling kit, were obtained from GE Healthcare. For kinetic analysis of the binding of ARNO(wt) with a2N(wt), purified 6His-a2N (5 μg/ml) in 10 mM sodium acetate (pH 4.0) was immobilized at 80 response units (RU) on a CM4 sensor chip using an amine coupling kit according to the manufacturer's instructions. The same kit was used to perform blank immobilization to create a reference surface on the same chip. Samples of purified GST-ARNO(wt) at concentrations ranging from 0.25-4 μM were injected for 6 min over active and reference surfaces at a flow rate of 30 μl/min in NBS-EP, 1 mM DTT running buffer (10 mM Hepes, pH 7.4, 150 mM NaCl, 3 mM EDTA, 0.05% Surfactant P20, 1 mM DTT). For kinetic analysis of the binding of the ARNO Sec7-domain with a2N-01 peptide, neutravidin (10 μg/ml) in 10 mM sodium acetate (pH 5.0) was immobilized at about 1200 RU on two surfaces of a CM4 sensor chip using an amine coupling kit. Following that, biotinylated a2N-01 peptide (50 RU) and amine-PEG3-biotin (25 RU) were irreversibly captured by neutravidin to create active and a reference surfaces, respectively. Purified Sec7-6His recombinant protein was injected for 3.5 min over active and reference surfaces at concentrations ranging from 0.05-1 μM and a flow rate of 100 μl/min in NBS-EP, 1 mM DTT running buffer. Dissociation of the complexes was monitored for 10 min, and then the regeneration of the sensor surfaces was performed using 0.05% SDS with 1-min injection in the running buffer at a 20 μl/min flow rate. […] The dissociation constant (KD) was determined from the kon/koff values. To estimate affinity of interaction the corresponding free energy of binding ΔGbind=RTlnKD was calculated as previously described (Marles et al., Mol Cell 14 (2004) 813-823).\nSpecific concentration-dependent responses were obtained for both interactions. […] Calculated free energies for a2N(wt)/ARNO(wt) and a2N-01/Sec7 binding are −8.86 kcal mol^−1 and −8.81 kcal mol^−1, respectively (Marles et al., Mol Cell 14 (2004) 813-823). […]", "key": {"[1]": {"details": "a2N immobilized, ARNO as analyte, 25° C."}}}
{"molecule": "B1", "values": [{"measurement": "Kd", "setting": "a2N immobilized on sensor chip, ARNO as analyte, 25° C., bivalent analyte isotherm, read-out: dissociation constant KD", "result": 313, "unit": "nM"}, {"measurement": "association rate constant (kon)", "setting": "[1]", "result": "4.77×10^3 M^−1S^−1"}, {"measurement": "dissociation rate constant (koff)", "setting": "[1]", "result": "14.95×10^−4 S^−1"}, {"measurement": "calculated free energy of binding", "setting": "ΔGbind=RTlnKD", "result": -8.86, "unit": "kcal/mol"}]}
